In article PMC9603474, “Genome-Wide Identification of DOF Gene Family and the Mechanism Dissection of SbDof21 Regulating Starch Biosynthesis in Sorghum”:

Target: T1, SbDOF21 (Sorghum bicolor cv. BTx623, UniProt C5Y2M8 1-340)
T1 sequence: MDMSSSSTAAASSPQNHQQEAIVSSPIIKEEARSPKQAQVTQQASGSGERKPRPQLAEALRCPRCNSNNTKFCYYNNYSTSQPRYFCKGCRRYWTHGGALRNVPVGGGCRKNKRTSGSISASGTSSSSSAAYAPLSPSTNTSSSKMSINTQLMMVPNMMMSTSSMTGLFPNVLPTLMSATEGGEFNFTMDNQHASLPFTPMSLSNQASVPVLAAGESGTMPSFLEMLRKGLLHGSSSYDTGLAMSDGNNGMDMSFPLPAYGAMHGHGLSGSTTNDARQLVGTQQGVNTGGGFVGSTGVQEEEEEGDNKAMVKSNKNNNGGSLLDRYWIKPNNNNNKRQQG
Experiment: EMSA; 20-fold unlabeled probe partly reduced the shift; Chemiluminescent EMSA Kit (Beyotime) per instructions; buffer, salt, pH and temperature not stated
Settings: protein: recombinant; tags: His (pET32a, N-terminal vector fusion); blunt

B1: 4x P-Box (dsDNA)
DNA 1: TGTAAAGTGTAAAGTGTAAAGTGTAAAG
DNA 2: CTTTACACTTTACACTTTACACTTTACA
binding result: binds
